Results on 7 molecules are retold here after paper PMC12957837, “Crotonylation driving Streptococcus pneumoniae adaption and virulence” (Journal of Advanced Research, 2025).

One data set has as its target SPD_0839 (Streptococcus pneumoniae, UniProt A0A0H2ZP99). The data set is described as follows: isothermal titration calorimetry. It is filed as binding. (In general: ITC needs no label: the signal is the heat of the interaction.)
Data set [1] concerns the molecule itself. The data set is described as follows: nanoparticle tracking analysis; NanoSight NS300, samples diluted with PBS, 25 °C; particle concentration of PLY and its mutants.
Data set [2] concerns the molecule itself. The data set is described as follows: native gel or EMSA; native gel of purified PLY and its mutants; oligomeric and monomeric forms marked by arrows. On the technique in general: Mobility shift assays separate free from complexed probe on a gel.
Data set [3] concerns the molecule itself. The data set can be described thus: SDS-PAGE without β-mercaptoethanol + Western blot; 1 µg Ply or mutant incubated with 125 µM crotonyl-CoA at 25 °C for 16 h; SDS loading buffer without β-mercaptoethanol, 55 °C for 10 min; 6 % SDS-PAGE; anti-Ply Western blot. (In general: In western blotting, separated proteins are transferred to a membrane and probed.)

Changes are numbered by the printed parent chain. Numbers in names are those of the source.

SPD_0839, sequence (A0A0H2ZP99 entry or part of it): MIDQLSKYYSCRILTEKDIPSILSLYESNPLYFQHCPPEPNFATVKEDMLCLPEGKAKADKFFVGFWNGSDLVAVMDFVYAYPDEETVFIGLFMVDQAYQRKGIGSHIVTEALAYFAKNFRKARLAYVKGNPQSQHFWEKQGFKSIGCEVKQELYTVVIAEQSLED

As usually defined, the Kd is the constant that tells how readily two partners part at equilibrium. Read a high Kd as lower affinity. The molecule `CC(=O)SCCNC(=O)CCNC(=O)[C@H](O)C(C)(C)COP(=O)(O)OP(=O)(O)OC[C@H]1O[C@@H](n2cnc3c(N)ncnc32)[C@H](O)[C@@H]1OP(=O)(O)O` [AcCoA] gave an equilibrium dissociation constant (Kd) on SPD_0839 of 10.4 µM. Same read-out and setting: next, `C/C=C/C(=O)SCCNC(=O)CCNC(=O)[C@H](O)C(C)(C)COP(=O)(O)OP(=O)(O)OC[C@H]1O[C@@H](n2cnc3c(N)ncnc32)[C@H](O)[C@@H]1OP(=O)(O)O` [CrCoA]: 1 µM.

B1: pneumolysin (PLY), wild type (natural protein, Streptococcus pneumoniae D39, UniProt Q04IN8 1-471, looked up)
chain: MANKAVNDFILAMNYDKKKLLTHQGESIENRFIKEGNQLPDEFVVIERKKRSLSTNTSDISVTATNDSRLYPGALLVVDETLLENNPTLLAVDRAPMTYSIDLPGLASSDSFLQVEDPSNSSVRGAVNDLLAKWHQDYGQVNNVPARMQYEKITAHSMEQLKVKFGSDFEKTGNSLDIDFNSVHSGEKQIQIVNFKQIYYTVSVDAVKNPGDVFQDTVTVEDLKQRGISAERPLVYISSVAYGRQVYLKLETTSKSDEVEAAFEALIKGVKVAPQTEWKQILDNTEVKAVILGGDPSSGARVVTGKVDMVEDLIQEGSRFTADHPGLPISYTTSFLRDNVVATFQNSTDYVETKVTAYRNGDLLLDHSGAYVAQYYITWDELSYDHQGKEVLTPKAWDRNGQDLTAHFTTSIPLKGNVRNLSVKIRECTGLAWEWWRTVYEKTDLPLVRKRTISIWGTTLYPQVEDKVEND
notes: pneumolysin (PLY) of Streptococcus pneumoniae serotype 2 strain D39; also called wild-type PLY; WT PLY
Consider B1, for which the binding result in data set [1] is “binds”.

B2: pneumolysin (PLY) K442R (natural protein, Streptococcus pneumoniae D39, UniProt Q04IN8 1-471, looked up)
chain: B1 chain with K442R
notes: pneumolysin (PLY) of Streptococcus pneumoniae serotype 2 strain D39 with K442R
As for B2, the binding result in data set [1] is reported as “binds”.

B3: pneumolysin (PLY) K164R (natural protein, Streptococcus pneumoniae D39, UniProt Q04IN8 1-471, looked up)
chain: B1 chain with K164R
notes: pneumolysin (PLY) of Streptococcus pneumoniae serotype 2 strain D39 with K164R
For the molecule B3, in data set [2], the binding result is recorded as “binds”.

B4: pneumolysin (PLY) K171R (natural protein, Streptococcus pneumoniae D39, UniProt Q04IN8 1-471, looked up)
chain: B1 chain with K171R
notes: pneumolysin (PLY) of Streptococcus pneumoniae serotype 2 strain D39 with K171R
With B4, in data set [1], the binding result is on record as “binds”.

B5: crotonylated pneumolysin (PLY incubated with crotonyl-CoA) (natural protein, Streptococcus pneumoniae D39, UniProt Q04IN8 1-471, looked up)
chain: B1 chain
modifications: lysine crotonylation (Kcr); K171 and K442 are the Kcr sites the paper names
notes: pneumolysin (PLY) of Streptococcus pneumoniae serotype 2 strain D39; also called crotonylated PLY; source: E. coli BL21 (λDE3), purified, then incubated with 125 µM crotonyl-CoA at 25 °C for 16 h
Take B5: the binding result in data set [3] was “binds”.
